The values that follow come from publication PMC12686569, “FaMYB63 and FvWYRKY75 Activate FvPR10.14 Boosting Strawberry Immunity Against Powdery Mildew”.

The data set deals with FvWRKY75 (Fragaria vesca, UniProt A0A1S5SLB0 1-190). The data set can be described thus: EMSA; EMSA Kit (Beyotime), according to Wang, Shi, et al. 2022; buffer, salt, pH and temperature not stated. The note with it: protein: recombinant; tags: His (as stated); blunt. (In general: A gel shift assay detects complexes by their altered migration in electrophoresis.)
Chain of FvWRKY75 (A0A1S5SLB0 entry or part of it): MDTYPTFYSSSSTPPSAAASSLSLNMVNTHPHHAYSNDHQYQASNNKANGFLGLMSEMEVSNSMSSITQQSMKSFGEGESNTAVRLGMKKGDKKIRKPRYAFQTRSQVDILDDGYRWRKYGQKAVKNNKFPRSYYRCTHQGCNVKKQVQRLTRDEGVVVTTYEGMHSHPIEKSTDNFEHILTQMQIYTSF

B1: FvPR10.14-P (FvWRKY75 probe) (dsDNA)
DNA 1: ATATATGGGATAGCCAATGTTGACTGCTCGACATTACGTGTATA
DNA 2: TATACACGTAATGTCGAGCAGTCAACATTGGCTATCCCATATAT
In the case of B1, the binding result is “binds”.
